Reference: publication PMC2947992, “Structure of the Extracellular Portion of CD46 Provides Insights into Its Interactions with Complement Proteins and Pathogens” (PLoS Pathogens, 2010)

B1: human adenovirus type 11 fiber knob (domain or fragment)
chain: LTFNSNNICIDDNINTLWTGVNPTEANCQIMNSSESNDCKLILTLVKTGALVTAFVYVIGVSNNFNMLTTHRNINFTAELFFDSTGNLLTRLSSLKTPLNHKSGQNMATGAITNAKGFMPSTTAYPFNDNSREKENYIYGTCYYTASDRTAFPIDISVMLNRRAINDETSYCIRITWSWNTGDAPEVQTSATTLVTSPFTFYYIREDD
notes: fiber protein of human adenovirus type 11, knob domain, amino acids 118-325; also called Ad11 knob; Ad11 fiber knob

How the values were obtained:
[1] = biological target: human adenovirus type 11 fiber knob (human adenovirus type 11) (UniProt P35774); assay: crystal structure; complex formed from purified proteins at 4°C for 2 hrs with a 1.2 molar excess of CD46-4D, separated from unbound CD46-4D by size exclusion chromatography (20 mM HEPES, 150 mM NaCl, pH 7.4); crystals at 4°C in 20% polyethylene glycol 1000, 0.2 M ammonium phosphate pH 8.0; space group P6_(3), 2.84 Å
[2] = biological target: the molecule itself; assay: as above

Molecule	stoichiometry N (CD46-4D molecules per knob trimer) [1]	stoichiometry N [2] [protomers]
CD46-4D, extracellular segment of human CD46 (membrane cofactor protein) comprising all four SCR domains (domain or fragment)	3	–
B1	–	3
